T1: human CD38 expressed on cells (Daudi cells, human PBMC / T cells) (human, UniProt P28907 1-300)
T1 sequence: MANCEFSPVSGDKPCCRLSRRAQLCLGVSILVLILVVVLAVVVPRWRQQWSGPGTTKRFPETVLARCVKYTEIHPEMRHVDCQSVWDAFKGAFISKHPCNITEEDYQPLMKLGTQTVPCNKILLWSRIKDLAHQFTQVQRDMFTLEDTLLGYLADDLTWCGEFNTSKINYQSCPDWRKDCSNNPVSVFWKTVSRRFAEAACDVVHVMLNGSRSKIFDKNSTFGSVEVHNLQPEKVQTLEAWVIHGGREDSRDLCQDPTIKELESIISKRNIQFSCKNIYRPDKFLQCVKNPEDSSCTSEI


Tests used:
[1] = target: T1, human CD38 expressed on cells (Daudi …); assay: cell-based or functional assay
[2] = target: T1, human CD38 expressed on cells (Daudi …); assay: flow cytometry on human PBMC, gated on CD4-positive cells, fluorescent secondary antibody [lower panel (gated on CD4-positive cells]
Method: (§1) Binding of anti-CD38 Antibodies to CD38-expressing cells: The candidate hits are evaluated by analysing the binding to human PBMC. […] Cells were then washed and labelled with an AF488 secondary antibody. Cells were then incubated with additional surface staining antibodies: anti-CD3 PE-Cy7, anti-CD4 APC and anti-CD8 BV451. Sample acquisition was performed using 8-colour (three laser) BD FACSCanto II cytometer, running on the BD FACSDiva software (BD Biosciences). Post-analysis processing and was conducted using FCS Express (v3.0) software (DeNovo software). The relative proportions (%) of the different cell populations and Median Fluorescence Intensity (MFI) data were reported to 2 decimal places.

[3] = target: T1, human CD38 expressed on cells (Daudi …); assay: flow cytometry on human PBMC, gated on CD8-positive cells, fluorescent secondary antibody [upper panel (gated on CD8-positive cells]
Method: as §1

[4] = target: T1, human CD38 expressed on cells (Daudi …); assay: cell-based or functional assay; remark: listed apart in the source

| ADCC target lysis EC50 [1] | ADCC target lysis Max. % lysis [1] | EC50 (read off the curve) [2] | EC50 (read off the curve) [3] | ADCC EC50 ug/ml, target Daudi cells, experiment 1 [4] | ADCC EC50 ug/ml, target Daudi cells, experiment 2 [4] | Binder |
| --- | --- | --- | --- | --- | --- | --- |
| 6.2 ng/mL | 49% | ~0.07 nM | ~0.07 nM | 0.011 µg/mL | 0.0062 µg/mL | aCD38-b-329 (antibody, human IgG1, V domains shown) VH: QLQLQESGPGLVKPSETLSLTCTVSGGSISSSDYYWGWIRQPPGKGLEWIGSIYYSGSTYYNPSLKSRVTISVDTSKNQFSLKLSSVTAADTAVYYCARGQYSSGWYAYPFDMWGQGTMVTVSS VL: EIVLTQSPGTLSLSPGERATLSCRASQSVRSSYLAWYQQKPGQAPRLLIYGASSRATGIPDRFSGSGSGTDFTLTISRLEPEDFAVYYCQQDGAVFTFGGGTKVEIK |
| 3.5 ng/mL | 43% | – | – | – | – | aCD38-b-329-m7 (antibody, IgG1, V domains shown) VH: QLQLQESGPGLVKPSETLSLTCTVSGGSISSSDYYWGWIRQPPGKGLEWIGSIYYSGSTYYNPSLKSRVTISVDTSKNQFSLKLSSVTAADTAVYYCARGQYSSGWYAYPFDMWGQGTMVTVSS VL: EIVLTQSPGTLSLSPGERATLSCRASQSVRSSYLAWYQQKPGQAPRLLIYGASSRATGIPDRFSGSGSGTDFTLTISRLEPEDFAVYYCQQDSAVFTFGGGTKVEIK |
| 2.4 ng/mL | 47% | – | – | – | – | aCD38-b-329-m6 (antibody, IgG1, V domains shown) VH: QLQLQESGPGLVKPSETLSLTCTVSGGSISSSDYYWGWIRQPPGKGLEWIGSIYYSGSTYYNPSLKSRVTISVDTSKNQFSLKLSSVTAADTAVYYCARGQYSSGWYAYPFDMWGQGTMVTVSS VL: EIVLTQSPGTLSLSPGERATLSCRASQSVRSSYLAWYQQKPGQAPRLLIYGASSRATGIPDRFSGSGSGTDFTLTISRLEPEDFAVYYCQQDEAVFTFGGGTKVEIK |

Source: patent US20210277138A1 (BLACK BELT THERAPEUTICS, published 2021)
